From paper PMC5733473

Test system: SinR (Bacillus subtilis)
Assay: EMSA
Details: EMSA: 15 mM Tris-Cl, 4 mM MOPS-KOH, 15 mM KCl, 50 mM NaCl, 0.8 mM MgCl2, 0.6 mM DTT, 12.5% glycerol, pH 7.8, 1 ug poly(dI-dC) in 16 ul, 20 fmol probe, 28 C …

Question: Which Kd (SinR-2 site, binding stated) does the source give for PkinB(-31/+104) here?
Answer: Its Kd is > 100 nM.

Question: Which binding signal (fold lower affinity) (SinR-1 site (upper band)) does the source give for PkinB(-75/+10) G-45A here?
Answer: Its binding signal (fold lower affinity) is 2.

Question: With Fm0 PkinB(-39/+104) as the substance, how does the Kd (SinR-2 site, binding stated (also given as >100 nM)) read?
Answer: The Kd was > 400 nM.

Question: For PkinB(-55/+10) WT, which Kd (SinR-2 site, binding stated) is on record?
Answer: The Kd was > 100 nM.

Question: With Rm0 PkinB(-124/-38) as the substance, how does the Kd (SinR-1 site) read?
Answer: The Kd was 50 nM.

Question: PkinB(-75/-7) delta5 G-45A was tested. Which Kd (SinR-2 site) did it give?
Answer: The Kd was 10 nM.

Question: For PkinB(-75/+10) delta5 G-45A, which Kd (SinR-2 site (SinR-1 not bound)) is on record?
Answer: The Kd was 10 nM.
